Target: T1, Interferon type I receptors on HeLa cells (UniProt P17181 28-557; P48551 27-515, limits assumed)
T1 sequence (looked up) 1: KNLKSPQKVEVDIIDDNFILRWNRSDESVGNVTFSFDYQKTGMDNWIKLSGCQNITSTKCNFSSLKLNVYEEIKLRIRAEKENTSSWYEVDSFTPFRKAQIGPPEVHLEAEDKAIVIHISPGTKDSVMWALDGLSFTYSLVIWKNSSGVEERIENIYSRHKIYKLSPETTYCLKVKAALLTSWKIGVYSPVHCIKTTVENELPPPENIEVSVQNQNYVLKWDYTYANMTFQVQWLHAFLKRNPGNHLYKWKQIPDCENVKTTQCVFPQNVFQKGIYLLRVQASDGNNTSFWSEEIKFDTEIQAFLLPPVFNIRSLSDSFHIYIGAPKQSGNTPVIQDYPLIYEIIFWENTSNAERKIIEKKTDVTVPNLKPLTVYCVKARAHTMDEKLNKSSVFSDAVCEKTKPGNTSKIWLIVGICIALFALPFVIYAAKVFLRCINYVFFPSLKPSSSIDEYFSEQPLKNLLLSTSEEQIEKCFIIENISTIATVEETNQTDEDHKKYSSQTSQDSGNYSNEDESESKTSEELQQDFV
T1 sequence (looked up) 2: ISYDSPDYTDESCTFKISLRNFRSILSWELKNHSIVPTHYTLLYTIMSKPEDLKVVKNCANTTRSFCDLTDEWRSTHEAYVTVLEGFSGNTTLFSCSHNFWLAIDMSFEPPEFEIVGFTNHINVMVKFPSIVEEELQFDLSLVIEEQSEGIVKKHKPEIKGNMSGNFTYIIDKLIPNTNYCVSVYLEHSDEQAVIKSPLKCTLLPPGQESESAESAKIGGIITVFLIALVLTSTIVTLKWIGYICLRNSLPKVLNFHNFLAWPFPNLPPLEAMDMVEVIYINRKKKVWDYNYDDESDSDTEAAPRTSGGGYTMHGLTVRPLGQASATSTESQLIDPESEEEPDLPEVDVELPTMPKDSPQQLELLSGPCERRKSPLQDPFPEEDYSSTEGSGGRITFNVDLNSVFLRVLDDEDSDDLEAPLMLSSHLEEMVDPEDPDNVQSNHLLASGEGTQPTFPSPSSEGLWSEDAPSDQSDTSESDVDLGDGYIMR
Assay: cell-based or functional assay

B1: [F111N+R113T] human IFNB variant (ligand)
chain: MSYNLLGFLQRSSNFQCQKLLWQLNGRLEYCLKDRMNFDIPEEIKQLQQFQKEDAALTIYEMLQNIFAIFRQDSSSTGWNETIVENLLANVYHQINHLKTVLEEKLEKEDNTTGKLMSSLHLKRYYGRILHYLKAKEYSHCAWTIVRVEILRNFYFINRLTGYLRN
modifications: introduced in vivo N-glycosylation site at position 111
specific activity relative to wild-type human IFNB (primary assay): ~2 fold of wild-type human IFNB

— patent publication US20060083715A1 (published 2006)
